From patent US12171828B2, “Quil A fraction with low toxicity and use thereof” (Novavax AB, priority 2003, dated 2024)

Tested on: OVA
Assay: OVA-specific serum antibody ELISA, QWT-iscoms with CT or MPL (Example 7)
Type: in vivo, NMRI mice
Settings: 5 μg OVA without adjuvant
Procedure: Sera were collected 3 weeks after priming and 2 weeks after the booster injection.
Serum antibody determination, including total IgG, and subclasses IgG1 and IgG2a, was carried in out in ELISA as described in example 1.

B1: OVA alone: ovalbumin, weak model antigen, given without adjuvant (protein, UniProt P01012 2-386, looked up)
Ovalbumin: GSIGAASMEFCFDVFKELKVHHANENIFYCPIAIMSALAMVYLGAKDSTRTQINKVVRFDKLPGFGDSIEAQCGTSVNVHSSLRDILNQITKPNDVYSFSLASRLYAEERYPILPEYLQCVKELYRGGLEPINFQTAADQARELINSWVESQTNGIIRNVLQPSSVDSQTAMVLVNAIVFKGLWEKAFKDEDTQAMPFRVTEQESKPVQMMYQIGLFRVASMASEKMKILELPFASGTMSMLVLLPDEVSGLEQLESIINFEKLTEWTSSNVMEERKIKVYLPRMKMEEKYNLTSVLMAMGITDVFSSSANLSGISSAESLKISQAVHAAHAEINEAGREVVGSAEAGVDAASVSEEFRADHPFLFCIKHIATNAVLFFGRCVSP
Question: B1 was tested. Which “serum IgG after booster” value did it give?
Answer: low serum levels of IgG
